Test results: the supplement of paper PMC9170038

Test system: K4 kissing-loop RNA reporter
Experiment: apparent KD of K4 kissing-loop reporter; higher = weaker reporter binding
Conditions: Eterna round: R107
Method: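 RNA-MaP round R107: designed RNA switches with theophylline, tryptophan, arginine or FMN aptamers are transcribed on-chip within common flanks. They are titrated with a labelled K4 kissing-loop RNA reporter in RNA-MaP buffer (100 mM Tris pH 7.5, 80 mM KCl, 4 mM MgCl2), without ligand or with the indicated ligand. Median apparent KD per design.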

[1] = input ligand: theophylline 20 uM
[2] = input ligand: tryptophan 2.4 mM
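Also: bound reporter read as fluorescence of individual clusters on recovered sequencing chips by microscopy, with normalized cluster intensities fitted with a binding model.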

Sequence	apparent KD of K4 kissing-loop reporter (input ligand: FMN 200 uM) [nM]	apparent KD of K4 kissing-loop reporter (input ligand: arginine 13.2 mM) [nM]	apparent KD of K4 kissing-loop reporter (input ligand: none) [nM]	apparent KD of K4 kissing-loop reporter [1] [nM]	apparent KD of K4 kissing-loop reporter [2] [nM]
GGUAUCUAUACAGAUACCAGUCGUACAGCACCAUUACAGGUUAGUGAUGUUAACCUGUACGACCCUUGGCAGCUGUAUUAUAAUA [#15 K4 Theophylline B Exclusion]	94.3	88.7	86.8	91.4	85.2
GGUCGAGUGAUGUUCGAUGUAGUGCAUUCAGAGGAUAUAGGAUUGGCUAGAAGGCUGAAACCUUCUUCGAGUGAUGUUCGAGGAU [Same State FMN A GF5]	130	83.8	112	90.1	77.8
GGUGACGACCAGAGGUGAUGUAUAGUAUCGCGAGGACCGGUACGGCCGCCACUCGUGAAGAGAAAGGAGUGAUGUUCCGUAAUGG [Kazoo C9]	241	217	289	289	108
GGUGGCGUUGUUGACAGCUCACCACGAGCCAAGGAUAUAGUUUCUUCUAGAAGGUGGAAUGACAAGUGAUGUUUGUACGACUGCU [theeternabot_exclusion_KL_FMN_A_28]	254	233	254	294	185
GGUGGCUUACAAAGCUCAGUGAUGUUGAGCCGAGGACCGGUACGGCCGCCACUCGUUUGCCAUUCACUACAGUUACAAGCACUAG [theeternabot_exclusion_KL_Trp_A_2]	269	217	279	282	292
GGUGUUGUUUGUGCUGUUUUCCUCGUUCCUCGAGGACCGGUACGGCCGCCACUCGAGUGAUGUUUGGGUAGCGAUCCCUGUUAGU [Bdazzled - #8 Exc. Tryptophan A]	624	504	675	649	593
GGUGUUGUUUGUGCUGUUUUCUUCGUUUCUCGAGGACCGGUACGGCCGCCACUCGAGUGAUGUUUGGGUAGCGAUCUUUGUUAGU [Bdazzled - #4- Exc. Tryptophan A]	430	256	345	339	385
GGUUAAAGCACCCGGAGUGAUGUUCCGGAUACCAGCAAACCAACUUGCCCUUGGCAGCCGUAUAGCGUCCGGUGGGCCGAGCAUA [Raarce]	94.9	94.3	98.4	97.6	92.7
GUAGACAGACUGCAAGCCUAGUCUACAGACUAGGAUAUCAGGAAACUGAGAAGGAGUCUAGUUGCAGUGAUGUUGCAAGAAUAAU [KL-SSFMN-A24]	120	135	123	140	99.8
GUAUAUUAGGGAGACCUAAUAUAAAUAGAAGGAGCGUAGGAAACUACAGGUAGGUCGCUAAAUAUACAGUGAUGUUGUAUAAUGG [arg a same]	183	147	172	195	141
GUAUCGCUAGGAGGAUAUUUCGUUUUUCAUAGCAAUGGCUGUGCGGAGUGAUGUUCCGAUUUACCGGAAGAAGGCCUAGUGAUAC [FMN B 27]	107	165	180	158	161
GUCAUGCGUUCAGGAUAUGGACCAAUUUAUAUUGCUUAUGCUGUGCCCUGUAUGGCAGUGAUGUUGCCAGAAGGGAGGGCAUGCA [Erbionvean]	116	88	96.6	111	102
GUCCACACUGCAGGAUAUGGAGGUAUAGCGAGGGAGUGUGGAAGCACACCUCUGGCAGUGAUGUUGCCAGAAGGGCGGUGCGGCG [Masodionra]	118	103	119	90.3	93.2
GUCCAUGUCCUCAUUCGUGCACUGGACACCAAGGAUAUGUUUAUGGACAGAAGGUGGUUGGGUCAGUGAUGUUGAUAUAAUUAGU [theeternabot_exclusion_KL_FMN_A_24]	208	276	278	406	194
GUCGGCCGCGCGCAAGCGCGGCCGGCCGAUACCAGCGCGCCGGUGCGCCCUUGGCAGCGGCACCGAGUGAUGUUCGGUCAGACGA [#2 Same State - Theophylline A Attempt #6 (HarryS)]	407	161	308	113	234
GUCUGCGUCUCGGCCGCCACUCACUAGUGAUGUUAGUAAGGAGCGACUAGAGAAGUCCAGUUGAUGAGGACCGGGAGACGCAAAA [Exclusion Tryptophan B GF4]	114	84.3	95.7	85.8	169
GUGAAGGAGCUGCAGUGAUGUUGCAGAGACUAGGAUAUCAGGAAACUGAGAAGGAGUCAACUCCUUCACCUAGACAACAUCACUA [[F]''-[K1]-[K2]-[F1]-[F2]-[F2]'-[F1]'-[K]'_Design2]	148	151	128	269	187
GUGCAGUGAUGUUGCACGAGGAAAGACGAUACCAGCCGUAAAUAAGGCCCUUGGCAGCGUGGGCUAGCACAAAAUAUGCUAGUCU [Laleingeat]	97.9	99.6	107	68.4	117
GUGCGCGCGGCGGCCGCCACUCGCAUGAGAGUGAUGUUCUCACCGUGACCGCAAGGUCGCGGUGUGAGGACCGGGCCGGGCUGCG [#2 Same State - Tryptophan B Attempt #25 (HarryS)]	74.3	93.5	217	464	297
GUGCGCGCGGCGGCCGCCACUCGCAUGAGAGUGAUGUUCUCGGGACUGACGGAAGUCAGUCAUGGGAGGACCGGGCCGGGCUGCG [#2 Same State - Tryptophan B Attempt #13 (HarryS)]	360	958	208	1140	521
GUGCGCGGUGCGGCCGCCACUCGCAUGAGAGUGAUGUUCUCGGGACGGACGGAAGUCCGUCAUGUGAGGACCGGGCAUGGCUGCG [#2 Same State - Tryptophan B Attempt #10 (HarryS)]	894	344	416	497	453

Sequence	apparent KD of K4 kissing-loop reporter (input ligand: FMN 200 uM) [nM]	apparent KD of K4 kissing-loop reporter (input ligand: arginine 13.2 mM) [nM]	apparent KD of K4 kissing-loop reporter (input ligand: none) [nM]	apparent KD of K4 kissing-loop reporter [1] [nM]	apparent KD of K4 kissing-loop reporter [2] [nM]
GUGCGUAAGUGAUGUUUACGUCAGCUCCGCAAGGAUAUCCUGAUUAGGAGAAGGUGCGGGAACUAAAGACGCUCGUUCUAGCAGG [theeternabot_exclusion_KL_FMN_A_33]	146	182	205	168	162
GUGGUACAGGCGGCCGCCACUAGUGAUGUUAGUGUUAGAAGAUAUAGUAUAUAUCGGCAUUUGUUUAGGACCGGGCCUGGUGGAG [aqzacmullin]	209	166	184	189	182
GUUACGCAUGGAAGGAGCGCUCUCAUAUUUAAUAACACAGUGAUGUUGUGAAUUUAUAUAAAGCAGGUAGGUCGCCAUGUGUAAC [Ex Arginine B K4 6]	336	281	326	276	258
GUUACGCAUGGAAGGAGCGCUCUCCGGCUUAUUAACACAGUGAUGUUGUGAUUUUGCCGAAAGCAGGUAGGUCGCCAUGUGUAAC [Ex Arginine B K4 11]	487	363	451	447	451
GUUCGAUUCUGAGUGAUGUUGAGAAUUGAGAAGGAUAUCCAGAAAAGGAGAAGGUCUACGUCAUGCGCCUCGAUUUGCUAGCUGC [theeternabot_exclusion_KL_FMN_A_50]	835	567	630	515	609
GUUGUCUACCAGAGGUGAUGUAUAGUAUCGCGAGGACCGGUACGGCCGCCACUCGUGAAGAGAAAGGAGUGAUGUUCCGUAAUGG [C10]	255	271	293	301	118
UAACCGCAGAAAGAUACCAGUGAGUGAUGUUCCUCGAUCCUGUGGUUCAUUCUCUUUACCCACCCUUGGCAGCUUCAAAUGUGAC [theeternabot_exclusion_KL_Theo_B_4]	831	537	850	573	602
UAACUCUUGCAGUGAUGUUGCAAGUAAGCUCAGGAUAUCAGGAAACUGAGAAGGGAGCAUCCUGAGCUUCUGCAAGAGCUCAGAA [KL-SSFMN-A4]	254	152	184	217	189
UAACUGCAGUGAUGUUGCAGAUGUCCUGACUAGGAUAUCAGGAAACUGAGAAGGAGUCCCUUCUAAACAUCACAGAAGGAGGACA [[K1]-[K2]-[F1]'-[F1]-[F2]-[F2]'-[K]'-[F]''_Design2]	491	415	434	508	442
UAACUGCAGUGAUGUUGCAGAUGUCCUGACUAGGAUAUCAGGAAACUGAGAAGGAGUGCCUUCUAAACAUCACAGAAGGUGGACA [KL-SSFMN-A28]	360	440	415	286	458
UAAGGGUUAUGUCCUCGGUGCGAAGAGCUCCGAGGACCGGUACGGCCGCCACUCGGAAGUUCUGAGUGAGGGAGUGAUGUUCCCU [Skye_Ex_TA]	312	291	359	315	306
UAAUAAAUUCCAGCUGUAUCACUCUUCGAAGGAGCGGACGAAAGUCCAGGUAGGUCGCGAAGAGUGAUGUUCUUUGCGGCGCUGG [Omei KL Arginine A Exc A v6]	82.3	68.4	94.8	76.6	57.1
UAAUAUCAACUUGUAGGAGUGAUGUUCCGCCGAGGACCGGUACGGCCGCCACUCGACAAAAUCUCAGUGUGGUACCUAGGAAUUU [theeternabot_exclusion_KL_Trp_A_24]	406	313	374	352	431
UAAUAUCCGUCGGCCGCCACUCACCAGUGAUGUUGGAGGAGUGAUGUUCCACGAGUGAUGUUCGAGAGGACCGGGACGGACGAUG [6th]	134	114	126	108	103
UAAUCACUCGAACUGCAAGUACGAGUGGAACGAGGACCGGUACGGCCGCCACUCGAUAACUUGCAGUGAUGUUGCAAGUAAGAAU [(T)''-(K)'-(T)'-(T1)-(T2)-(K1)-(K2)_Design7]	60.5	52.4	57.2	52.8	121
UAAUUUAUGUCUUUAAUUUUAUAAUCAGAUACCAGUGAUUUAUGACACCCUUGGCAGCUGUAUUGAGUGAUGUUCUUAUACUUAA [JR_Nu_ExcTheophyA_Sub022]	140	167	175	236	99.3
UACAGGGAUAGUGAUGUUAUCCCAUGUGAUACCAGUGCCAUCCAACACCCUUGGCAGCAUACGGGCAGUGAUGUUGUUCUUGGUU [Exclusion Theophylline A GF 13]	96.1	85.4	93.7	87.1	88.5
UACAGGGCGAGUGAUGUUUGCUCAUGUGAUACCAGUGCCAUCCAACACCCUUGGCAGCAUGCGGGCAGUGAUGUUGUCCUUGGUU [Exclusion Theophylline A GF11]	294	223	280	278	249
UACUUAUAUAUCAACUUAAAUUAUUCAGAAGGAGCGUGAUCAUUCACAGGUAGGUCGCUGAACUAGUGAUGUUAGUUUUAAUUUU [JR_Nu_ExcArginiA_Sub023]	67.9	146	81.3	126	61.5
UAGCUCUACAGAAGGAGCGACGUUCUUAGACAGUGAUGUUGUCUAUAGUGAAUAUAGGAACGUCAGGUAGGUCGCUGUAGAGCUA [Arg B SS t11]	213	160	200	189	164
UAGGAGUGAUGUUCCAUGUCUUGAGCCGAAGGAGCGCCUUUCUAGGCAGGUAGGUCGCGGCAGAAGGUACCAGUGAUGUUGGAAA [Same State Arginine A GF8]	249	385	372	283	279
